This series deals with Escherichia coli TOP10. Description: shrunken log2 fold change of peptide-encoding DNA abundance (4.5 h post-induction vs induction); higher = less antimicrobial activity (less host growth inhibition). The settings on record: time post-induction: 4.5 h; library: site-saturation at positions 5, 18, 19, 20.
With RRIRIRPPRLPRPRPRPDYRPRP, the “shrunken log2 fold change” value is 0.0581.
On to RRIRDRPPRLPRPRPRPDSGPRP, for which the “shrunken log2 fold change” value is -0.00436.
The value for RRIRIRPPRLPRPRPRPPPWPRP was 0.508.
Regarding RRIRERPPRLPRPRPRPQQSPRP, the “shrunken log2 fold change” value was -0.05.
The value for RRIRDRPPRLPRPRPRPLFCPRP was 0.208; that for RRIRMRPPRLPRPRPRPQTMPRP was 0.276; that for RRIRQRPPRLPRPRPRPIHHPRP was -0.167.
On to RRIRTRPPRLPRPRPRPTFAPRP, for which the “shrunken log2 fold change” value is 0.459.
RRIRHRPPRLPRPRPRPTVVPRP: the “shrunken log2 fold change” value is -0.00918.
The value for RRIRTRPPRLPRPRPRPNQWPRP was -0.0389; that for RRIRSRPPRLPRPRPRPFHCPRP was -0.0582.
As for RRIRTRPPRLPRPRPRPTTVPRP, the figure is -0.271.
As for RRIRERPPRLPRPRPRPWWFPRP, the figure is 0.137; as for RRIRNRPPRLPRPRPRPQTPPRP, -0.00271.
On to RRIRIRPPRLPRPRPRPIRRPRP, for which the “shrunken log2 fold change” value was found to be 0.00942.
Regarding RRIRSRPPRLPRPRPRPSYQPRP, the “shrunken log2 fold change” value was -0.434.
The value for RRIRGRPPRLPRPRPRPNHIPRP was -0.444.
As for RRIRVRPPRLPRPRPRPTWQPRP, the figure is 0.27; as for RRIRERPPRLPRPRPRPQNQPRP, -0.612.
As to RRIRSRPPRLPRPRPRPNWRPRP, the “shrunken log2 fold change” value was determined as 0.266.
As to RRIRHRPPRLPRPRPRPNVIPRP, the “shrunken log2 fold change” value was determined as 0.0378.
The value for RRIRRRPPRLPRPRPRPPWGPRP was 0.0337; that for RRIRNRPPRLPRPRPRPAQWPRP was 0.525; that for RRIRNRPPRLPRPRPRPVDFPRP was -0.262.
Consider RRIRYRPPRLPRPRPRPDVRPRP, for which the “shrunken log2 fold change” value is -0.0526.
As for RRIRTRPPRLPRPRPRPQDEPRP, the figure is -0.152; as for RRIRCRPPRLPRPRPRPTWPPRP, 0.371.
Take RRIRWRPPRLPRPRPRPTAHPRP: the “shrunken log2 fold change” value was 0.306.
As for RRIRIRPPRLPRPRPRPKQVPRP, the figure is -0.118; as for RRIRGRPPRLPRPRPRPVNHPRP, 0.301; as for RRIRDRPPRLPRPRPRPAIWPRP, 0.24.
For the sequence RRIRYRPPRLPRPRPRPACDPRP, the “shrunken log2 fold change” value is -0.00452.
RRIRDRPPRLPRPRPRPMLLPRP: the “shrunken log2 fold change” value stood at 0.307.
On to RRIRWRPPRLPRPRPRPSECPRP, for which the “shrunken log2 fold change” value came out at 0.0183.
The value for RRIRHRPPRLPRPRPRPIIDPRP was -0.0219.
On to RRIRNRPPRLPRPRPRPKQMPRP, for which the “shrunken log2 fold change” value was determined as 0.267.
As for RRIRRRPPRLPRPRPRPSYVPRP, the “shrunken log2 fold change” value was -0.0434.
On to RRIRTRPPRLPRPRPRPDHDPRP, for which the “shrunken log2 fold change” value was determined as 0.0257.
As for RRIRMRPPRLPRPRPRPRFLPRP, the figure is -0.00457.
For RRIRDRPPRLPRPRPRPQPHPRP, the “shrunken log2 fold change” value is 0.228.
Regarding RRIRPRPPRLPRPRPRPLPWPRP, the “shrunken log2 fold change” value stood at 0.592.
The value for RRIRWRPPRLPRPRPRPDKKPRP was -0.0507; that for RRIRTRPPRLPRPRPRPMLYPRP was -0.131; that for RRIRMRPPRLPRPRPRPKCAPRP was 2.89.
The value for RRIRRRPPRLPRPRPRPPVCPRP was 0.592.
Turning to RRIRARPPRLPRPRPRPPKTPRP, the “shrunken log2 fold change” value was 0.12.
As for RRIRNRPPRLPRPRPRPTNYPRP, the figure is -0.73; as for RRIRNRPPRLPRPRPRPYCHPRP, -0.72.
The value for RRIRFRPPRLPRPRPRPEPPPRP was 0.702; that for RRIRCRPPRLPRPRPRPGLNPRP was -0.0525.
With RRIRYRPPRLPRPRPRPWVAPRP, the “shrunken log2 fold change” value was -0.481.
Take RRIRKRPPRLPRPRPRPWPFPRP: the “shrunken log2 fold change” value was determined as 0.0352.
On to RRIRPRPPRLPRPRPRPFCFPRP, for which the “shrunken log2 fold change” value stood at 0.337.
As for RRIRIRPPRLPRPRPRPWYMPRP, the “shrunken log2 fold change” value is -0.775.
As for RRIRFRPPRLPRPRPRPMYCPRP, the figure is -0.541; as for RRIRPRPPRLPRPRPRPMQPPRP, 0.234; as for RRIRLRPPRLPRPRPRPCGIPRP, 0.142.
The value for RRIRTRPPRLPRPRPRPEFWPRP was 0.445; that for RRIRRRPPRLPRPRPRPGYVPRP was 0.183; that for RRIRPRPPRLPRPRPRPCKAPRP was -0.00218.
As for RRIRLRPPRLPRPRPRPMFIPRP, the figure is -0.734; as for RRIRIRPPRLPRPRPRPHTDPRP, -0.777.
As to RRIRVRPPRLPRPRPRPLIEPRP, the “shrunken log2 fold change” value came to 0.103.
As for RRIRTRPPRLPRPRPRPEVVPRP, the figure is 0.292.
The value for RRIRMRPPRLPRPRPRPGIEPRP was 2.2; that for RRIRHRPPRLPRPRPRPGCTPRP was -0.514.
In the case of RRIRIRPPRLPRPRPRPATRPRP, the “shrunken log2 fold change” value came out at 0.19.
On to RRIRYRPPRLPRPRPRPHDEPRP, for which the “shrunken log2 fold change” value was -0.0568.
On to RRIRIRPPRLPRPRPRPPEFPRP, for which the “shrunken log2 fold change” value was -0.0754.
Take RRIRLRPPRLPRPRPRPNYRPRP: the “shrunken log2 fold change” value is -0.571.
With RRIRGRPPRLPRPRPRPVHAPRP, the “shrunken log2 fold change” value was 0.743.
Take RRIRRRPPRLPRPRPRPMSQPRP: the “shrunken log2 fold change” value amounted to 0.247.
RRIRCRPPRLPRPRPRPWTMPRP: the “shrunken log2 fold change” value is 0.0153.
Turning to RRIRLRPPRLPRPRPRPDAPPRP, the “shrunken log2 fold change” value is 0.313.
As for RRIRGRPPRLPRPRPRPYSFPRP, the figure is 0.0271; as for RRIRSRPPRLPRPRPRPQISPRP, -0.00331.
The value for RRIRYRPPRLPRPRPRPEWSPRP was -0.0724; that for RRIRLRPPRLPRPRPRPYMLPRP was -1.2; that for RRIRFRPPRLPRPRPRPNADPRP was -0.055.
The value for RRIRVRPPRLPRPRPRPLRCPRP was 0.0372; that for RRIRDRPPRLPRPRPRPCLLPRP was 0.491.
Consider RRIRDRPPRLPRPRPRPNWQPRP, for which the “shrunken log2 fold change” value was found to be 0.00408.
On to RRIRARPPRLPRPRPRPCMLPRP, for which the “shrunken log2 fold change” value is -0.0396.
For RRIRIRPPRLPRPRPRPMRTPRP, the “shrunken log2 fold change” value was 0.0509.
In the case of RRIRARPPRLPRPRPRPHEKPRP, the “shrunken log2 fold change” value was 0.358.
As for RRIRGRPPRLPRPRPRPKHPPRP, the figure is 0.608.
As for RRIRTRPPRLPRPRPRPMHEPRP, the figure is -0.0192; as for RRIRSRPPRLPRPRPRPYGHPRP, -0.00193.
As for RRIRTRPPRLPRPRPRPVYKPRP, the figure is -0.188; as for RRIRHRPPRLPRPRPRPQDMPRP, -0.129; as for RRIRERPPRLPRPRPRPAWAPRP, 0.0704.
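Further: peptides expressed intracellularly from a pBAD plasmid library in pooled LB shake-flask culture, induced with 0.3% L-arabinose, DNA abundance read by NGS, three biological replicates, DESeq2 with apeglm shrinkage.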
